Results published in PMC314469, “Protein Interaction Networks by Proteome Peptide Scanning” (PLoS Biology, 2004).

T1: amphyphisin SH3 (AMPH_HUMAN), P49418
T1 chain: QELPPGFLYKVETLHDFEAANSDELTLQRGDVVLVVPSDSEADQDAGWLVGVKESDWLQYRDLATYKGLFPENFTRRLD


Legend:
[1] = target: T1, amphyphisin SH3 (AMPH_HUMAN), P49418; assay: SPOT array
[2] = target: endophilin SH3 (SH3G2_HUMAN), Q99962; assay: SPOT array

| Binder | normalised SPOT signal, Boehringer light units (BLU); mean over the file's lines of this peptide [1] | normalised SPOT signal, Boehringer light units (BLU); mean over the file's lines of this peptide [2] |
| --- | --- | --- |
| FNFDFRRPGPEPPR [O43559 400-413] | 26.2 | 100 |
| FMSSPRRPRSRGRQ [Q9HAP2 6-19] | 1130 | 1160 |
| FEEGIKRPYFHVKP [Q9NWR1 213-226] | 48.9 | 147 |
| FRGSFRRPDNLSLA [Q9Y4B7 288-301] | 74.9 | 109 |
| FLSIPRRPNWNQNT [Q9NUK8 110-123] | 164 | 1230 |
| FLLLPPRPPPARPE [Q96IC8 98-112] | 42.3 | 2020 |
| AILTLPRPVRASLP [Q9NQ75 154-167] | 402 | 1390 |
| FNQALGRPEKIHNK [Q9UHP3 379-392] | 92 | 100 |
| FNKYLSRPKRFEVA [P50219 263-276] | 193 | 111 |
| FDNTLSRPSRVPLG [Q99743 208-221] | 1220 | 170 |
| FLDYLKRPGLTYLQ [O14802 125-138] | 14.8 | 7.9 |
| FNDSPYKPPVTRSN [Q9H7L2 189-203] | 64.1 | 93 |
| FIKIPRRPDQPGKG [Q99853 71-84] | 117 | 479 |
| FHKIFIRPLRYRSR [Q13258 335-348] | 15900 | 2980 |
| FSDFLKRPIALLKM [Q9H3T9 40-53] | 22 | 399 |
| FLGHIKRPWGISVG [Q12908 58-71] | 34.2 | 116 |
| FGDLPRKPPLPSSA [Q96QH2 422-436] | 48.3 | 994 |
| FNKYLSRPRRVEIA [O43364 164-177] | 255 | 156 |
| FGDKFKRPIGSWES [P49790 786-799] | 34 | 45.5 |
| FNRYLSRPRRVEMA [O43365 212-225] | 336 | 204 |
| FLNRLVRPRRSAPK [O43508 84-97] | 724 | 2010 |

| Binder | normalised SPOT signal, Boehringer light units (BLU); mean over the file's lines of this peptide [1] | normalised SPOT signal, Boehringer light units (BLU); mean over the file's lines of this peptide [2] |
| --- | --- | --- |
| FRRLPTRPRKGGPE [Q9NXF8 292-305] | 340 | 1540 |
| FPTVPTRPEKGYIW [Q99995 108-121] | 562 | 425 |
| FGRRPRRPVDGRVG [Q8WUZ5 5-18] | 35.7 | 83.3 |
| AIAPPPRPPKPSQA [Q9UQC2 347-361] | 3020 | 5760 |
| FNFDIRRPSLEHRQ [O43558 420-433] | 115 | 3350 |
| FDGRPTKPPPNSYS [P17480 292-306] | 66.2 | 351 |
| FLGGPARPPSPSPS [P08588 264-278] | 80.6 | 8610 |
| FKDVLLRPKRSSLK [P36959 12-25] | 3460 | 557 |
| FDGSPEKPPEDDSD [O94885 388-402] | 36.5 | 36.7 |
| FEGSLRRPLSWKSL [Q9BPU7 391-404] | 43.8 | 67.7 |
| FLTRLRRPIGKMTI [P28288 243-256] | 14.2 | 382 |
| FGAVLRRPHDPKTV [Q07283 41-54] | 18.4 | 51.1 |
| AHLPPPRPQRPAET [Q9UFB1 214-227] | 248 | 238 |
| FGTLPPRPPGQDTS [O75336 479-493] | 52.3 | 77.3 |
| FGLVPERPLKQELG [Q99526 361-374] | 647 | 284 |
| FLAKIARPKKRAET [P78508 165-178] | 168 | 190 |
| FQEFLKRPDHKQDF [Q9C093 551-564] | 32.9 | 32.9 |
| FNKYISRPRRVELA [P52945 167-180] | 242 | 385 |
| FERPFRRPNANFTS [Q9NVW8 331-344] | 4010 | 343 |
| FFKGIRRPWKGVLM [O75449 234-247] | 62.9 | 159 |
| AHMAISRPLKASQM [Q9HCH8 560-573] | 137 | 417 |
